This note sets out measurements from PMC10544979.

The target of experiment [1] is mouse TLR4 (mTLR4) on HEK-Blue-mTLR4 reporter cells (mouse) (UniProt Q9QUK6). The following applies: for log (EC50) of NF-kB-driven SEAP secretion by HEK-Blue-mTLR4 reporter cells, 48 h, dose-response up to 2540 nM: scale: log.
The target of experiment [2] is human TLR4 (hTLR4) on HEK-Blue-hTLR4 reporter cells (human) (UniProt O00206).
Chain of UniProt O00206 (O00206 24-839): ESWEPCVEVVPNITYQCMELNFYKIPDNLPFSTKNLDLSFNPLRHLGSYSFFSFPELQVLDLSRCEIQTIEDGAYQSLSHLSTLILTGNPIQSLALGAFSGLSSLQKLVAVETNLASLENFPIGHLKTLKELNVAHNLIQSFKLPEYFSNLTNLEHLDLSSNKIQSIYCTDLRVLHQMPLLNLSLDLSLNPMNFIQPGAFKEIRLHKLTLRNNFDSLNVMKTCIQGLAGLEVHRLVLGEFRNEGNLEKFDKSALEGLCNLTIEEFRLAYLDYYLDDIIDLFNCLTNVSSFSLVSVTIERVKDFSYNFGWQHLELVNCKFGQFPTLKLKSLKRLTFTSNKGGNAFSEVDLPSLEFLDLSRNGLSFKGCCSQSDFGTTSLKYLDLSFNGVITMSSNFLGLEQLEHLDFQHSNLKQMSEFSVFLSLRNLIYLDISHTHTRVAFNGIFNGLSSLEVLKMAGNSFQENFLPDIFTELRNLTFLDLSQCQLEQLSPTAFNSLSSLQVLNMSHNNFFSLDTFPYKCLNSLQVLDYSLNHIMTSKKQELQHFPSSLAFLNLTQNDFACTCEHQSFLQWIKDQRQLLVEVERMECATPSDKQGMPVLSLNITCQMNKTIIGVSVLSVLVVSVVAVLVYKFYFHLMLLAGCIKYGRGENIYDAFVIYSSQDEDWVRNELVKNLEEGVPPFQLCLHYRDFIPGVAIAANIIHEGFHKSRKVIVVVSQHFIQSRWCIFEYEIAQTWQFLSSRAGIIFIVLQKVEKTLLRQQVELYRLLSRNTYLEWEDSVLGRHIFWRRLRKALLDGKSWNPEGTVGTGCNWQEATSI

Chain of UniProt Q9QUK6 (Q9QUK6 26-835): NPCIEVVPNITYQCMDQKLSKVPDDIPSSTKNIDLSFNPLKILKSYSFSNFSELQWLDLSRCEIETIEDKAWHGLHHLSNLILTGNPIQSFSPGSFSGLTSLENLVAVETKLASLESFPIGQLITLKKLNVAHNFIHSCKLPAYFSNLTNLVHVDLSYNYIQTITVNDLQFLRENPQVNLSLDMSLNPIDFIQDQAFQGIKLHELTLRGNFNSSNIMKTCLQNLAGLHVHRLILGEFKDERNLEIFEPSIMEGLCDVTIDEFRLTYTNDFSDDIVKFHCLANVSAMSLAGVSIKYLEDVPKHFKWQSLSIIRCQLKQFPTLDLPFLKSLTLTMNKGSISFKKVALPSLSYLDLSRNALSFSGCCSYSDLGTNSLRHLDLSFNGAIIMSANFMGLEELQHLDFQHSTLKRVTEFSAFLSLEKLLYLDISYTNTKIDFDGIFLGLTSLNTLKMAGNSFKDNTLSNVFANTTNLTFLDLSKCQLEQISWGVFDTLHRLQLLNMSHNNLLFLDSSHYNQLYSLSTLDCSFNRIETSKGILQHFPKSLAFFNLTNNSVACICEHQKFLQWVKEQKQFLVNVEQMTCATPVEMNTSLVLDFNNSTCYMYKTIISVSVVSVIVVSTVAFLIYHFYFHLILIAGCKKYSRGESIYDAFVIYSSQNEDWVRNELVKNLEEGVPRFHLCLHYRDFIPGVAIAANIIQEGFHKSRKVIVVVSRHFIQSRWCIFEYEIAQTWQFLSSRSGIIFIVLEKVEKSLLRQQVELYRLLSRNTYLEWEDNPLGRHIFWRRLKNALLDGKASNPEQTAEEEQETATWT

As to “Fissurella latimarginata hemocyanin (FLH) (natural protein)”, in experiment [1], the maximum activation of HEK-Blue-mTLR4 reporter cells (SEAP), dose-response up to 2540 nM, 48 h, LPS plateau = 100% is 80 % of LPS and the log (EC50) of NF-kB-driven SEAP secretion by HEK-Blue-mTLR4 reporter cells, 48 h, dose-response up to 2540 nM is 0.1. Moreover, the activation of HEK-Blue-hTLR4 reporter cells (SEAP), dose-response up to 2,540 nM, 48 h, LPS = 100% in experiment [2] was 25 % of LPS.
Regarding “recombinant surface immunogenic protein (rSIP) from Streptococcus agalactiae (natural protein)”, in experiment [1], the maximum activation of HEK-Blue-mTLR4 reporter cells (SEAP), dose-response up to 2540 nM, 48 h, LPS plateau = 100% is 80 % of LPS and the log (EC50) of NF-kB-driven SEAP secretion by HEK-Blue-mTLR4 reporter cells, 48 h, dose-response up to 2540 nM is -1. In experiment [2], the activation of HEK-Blue-hTLR4 reporter cells (SEAP), dose-response up to 2,540 nM, 48 h, LPS = 100% is 90 % of LPS.
